Results as given in article PMC10003956, “To the Understanding of Catalysis by D-Amino Acid Transaminases: A Case Study of the Enzyme from Aminobacterium colombiense” (Molecules, 2023).

Molecular target: D-amino acid transaminase from Aminobacterium colombiense (AmicoTA) (Aminobacterium colombiense)
Assay: SEC; gel filtration of AmicoTA in solution (Figure S7); conditions not told for this experiment

For “D-amino acid transaminase from Aminobacterium colombiense (AmicoTA) (enzyme)”, the stoichiometry N was 2.
